B1: Tub4 (yeast gamma-tubulin), wild type, untagged [S. cerevisiae] / Spc97-3HA [S. cerevisiae] (parent complex)
chain 1: MGGEIITLQAGQCGNHVGKFLWSQLAKEHAIGTDGLSQLPDSSTERDDDTKPFFRENSRNKFTPRAIMMDSEPSVIADVENTFRGFFDPRNTWVASDGASAGNSWANGYDIGTRNQDDILNKIDKEIDSTDNFEGFQLLHSVAGGTGSGLGSNLLEALCDRYPKKILTTYSVFPARSSEVVVQSYNTILALRRLIEDSDATVVFDNASLLNISGKVFRNPNIDLQHTNQLISTIISSVTNSIRFPSYMYSSMSSIYSTLIPSPELHFLSPSFTPFTSDYIHDDIAHKGHSSYDVMLDLLDPSNSLVSTAMNNPTYFNVYNTIIGNVEPRQISRAMTKLQQRIKFPSWSSSAMHVNIGRRSPYLPLQPNENEVSGMMLSNMSTVVNVFENACNTFDKVFAKGAFLNNYNVGDLFQSMQNVQDEFAESREVVQSLMEDYVAAEQDSYLDDVLVDDENMVGELEEDLDADGDHKLV
chain 2: MEIKEVDDRAELLRYTNNIPLLGKLVNHQPLWSTNPKLKSFSLEKISAPDQRRVQEALVVKDLLNVLIGLEGTYIRYFNDYEPSDPETPIEFKIAKKMDPSFKTFSRRIVRYGKQYMILTRAYEKWSDTSFGMVLQRFAYEIRRFLEDVYLKTLVERLERDFNKVPNFSIRELEQIINETEVNKQMELLYNIYEEIFREIEERRTNQSSQEDFNNFMDSMKNESSLHLRLMVAFDTTVYPVPKGGAILKIFQQKILENLGDRSSVMFLKKLLNNISQDYCTMLYEWLTQGILNDPYQEFMTYDDLEGKTDNIFDTRDRAWDTQYFIRKDVLLRDCDSEEDKNLLFKMLRTGILLKVVRASLQIPTIPSNSSDITIQEINDFADLMEGSNLELYVDKCYSRANEIFLKLFFQGYDLINVLKHLQQIFLGYQSGHNVLKFLTKNMGELTKHYRNDNNANYDKLLQNFELERQSENPNNLMRQLLMIQFDTETLPQVLSHYLQIYPEVPENNSANDDSDPLMHANNFKNMNAILFDELSKERTGAYHGSNLELYTPKSAIYHLKFDINIPYPLNIIISRTCMIKYQIILRYQLVLQYHSRLLDETWMDLNKTPSWKYRGYSHTVKRRIVRATRVLHAKMNHFIKTIMEYFNQNVIDKEVYSLEKCYRNPTLAVAIQNELEGGLTNIMTNRCLSDLIPLQLQIFDIVYKFCKFIKSMRAKLCQLDPVLYEKHKSGMMKTLNEGYRTNNGGQEDVGYQEDAALELIQKLIEYISNASSIFRKCLINFTQELSTEKFDFYDSSSVDAAGIERVLYSIVPPRSASASSQR

Variants of: B1
Test: co-immunoprecipitation (anti-HA IP of Spc97-3HA), quantified immunoblot; TUB4-AID SPC97-3HA cells, IAA for 2 h at 30°C; normalized to precipitated Spc97-3HA; parent: 1; read off a plot

Question: How did the ratio to parent turn out when chain 1 MGGEIITLQAGQCGNHVGKFLWSQLAKEHAIGTDGLSQLPDSSTERDDDTKPFFRENSRNKFTPRAIMMDSEPSVIADVENTFRGFFDPRNTWVASDGAEAGNSWANGYDIGTRNQDDILNKIDKEIDSTDNFEGFQLLHSVAGGTGSGLGSNLLEALCDRYPKKILTTYSVFPARSSEVVVQSYNTILALRRLIEDSDATVVFDNASLLNISGKVFRNPNIDLQHTNQLISTIISSVTNSIRFPSYMYSSMSSIYSTLIPSPELHFLSPSFTPFTSDYIHDDIAHKGHSSYDVMLDLLDPSNSLVSTAMNNPTYFNVYNTIIGNVEPRQISRAMTKLQQRIKFPSWSSSAMHVNIGRRSPYLPLQPNENEVSGMMLSNMSTVVNVFENACNTFDKVFAKGAFLNNYNVGDLFQSMQNVQDEFAESREVVQSLMEDYVAAEQDSYLDDVLVDDENMVGELEEDLDADGDHKLV [chain 1 S100E] was run?
Answer: Its ratio to parent is about 0.63.

Question: chain 1 MGGEIITLQAGQCGNHVGKFLWSQLAKEHAIGTDGLSQLPDSSTERDDDTKPFFRENSRNKFTPRAIMMDSEPSVIADVENTFRGFFDPRNTWVASDGASAGNSWANGYDIGTRNQDDILNKIDKEIDSTDNFEGFQLLHSVAGGTGSGLGSNLLEALCDRYPKKILTTYSVFPARSSEVVVQSYNTILALRRLIEDSDATVVFDNASLLNISGKVFRNPNIDLQHTNQLISTIISSVTNSIRFPSYMYSSMSSIYSTLIPSPELHFLSPSFTPFTSDYIHDDIAHKGHSSYDVMLDLLDPSNSLVSTAMNNPTYFNVYNTIIGNVEPRQISRAMTKLQQRIKFPSWSSSAMHVNIGRRDPYLPLQPNENEVSGMMLSNMSTVVNVFENACNTFDKVFAKGAFLNNYNVGDLFQSMQNVQDEFAESREVVQSLMEDYVAAEQDSYLDDVLVDDENMVGELEEDLDADGDHKLV [chain 1 S360D] was tested. Which ratio to parent did it give?
Answer: The ratio to parent was about 0.41.
